Experimental data taken from PMC4072508, “Genome-Wide Prediction and Validation of Peptides That Bind Human Prosurvival Bcl-2 Proteins” (PLoS Computational Biology, 2014).
Like-named read-outs stand apart in the source and are kept apart here. No end group written: not given here.

Tests used:
Mcl-1 [1] = target: T1, Mcl-1 (Homo sapiens, UniProt Q07820); experiment: Fluorescence polarization direct binding; conditions: Binder class, Mcl-1, benchmark classification of peptides newly characterized in this study
T1 construct: myc-Mcl-1 SPOT array & FP; made in house
Method: (§1) Peptides were purified by reverse-phase HPLC using a C18 column and a linear water/acetonitrile gradient. We re-analyzed the purified peptide by mass spectrometry if there was not a single well-defined peak in HPLC chromatogram.
(§2) Fluorescence polarization (FP) assays were done at 25°C in assay buffer (20 mM NaPO4, 50 mM NaCl, 1 mM EDTA, 0.001% Triton X (v/v), pH 7.8). […] For all FP experiments, the total well volume was 120 µl. […] Anisotropy was measured using a Spectramax M5 plate reader from Molecular Devices.
(§3) Direct binding curves were fit using Pylab/Scipy/Optimize to a single-site binding model utilized previously.
(§4) ^1Best-fit KD values determined by combining all replicate titration curves and fitting to a direct binding model (see Methods). […] Values with an X followed by a number indicate the highest concentration (the number, in nM) for which signal was measured yet no binding was detected.

Bcl-2 = target: T2, Bcl-2 (Homo sapiens, UniProt P10415, DEL53-91); experiment: Fluorescence polarization direct binding
T2 construct: myc- Bcl-2 FP; made in house
Method: as §1, §2, §3, §4

Bfl-1 = target: T3, Bfl-1 (Homo sapiens, UniProt Q16548); experiment: Fluorescence polarization direct binding
T3 construct: myc- Bfl-1 SPOT array & FP; made in house
T3 sequence (Q16548 with tags, fused parts or gaps): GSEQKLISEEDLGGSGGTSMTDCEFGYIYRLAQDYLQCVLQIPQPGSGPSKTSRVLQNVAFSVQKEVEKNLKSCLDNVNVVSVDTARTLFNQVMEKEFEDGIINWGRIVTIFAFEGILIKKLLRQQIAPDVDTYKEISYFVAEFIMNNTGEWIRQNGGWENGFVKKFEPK
Method: as §1, §2, §3, §4

Bcl-w = target: T4, Bcl-w (Homo sapiens, UniProt Q92843, Q133R); experiment: Fluorescence polarization direct binding
T4 construct: myc-Bcl-w SPOT array & FP; made in house
T4 sequence (Q92843 with tags, fused parts or gaps Q133R): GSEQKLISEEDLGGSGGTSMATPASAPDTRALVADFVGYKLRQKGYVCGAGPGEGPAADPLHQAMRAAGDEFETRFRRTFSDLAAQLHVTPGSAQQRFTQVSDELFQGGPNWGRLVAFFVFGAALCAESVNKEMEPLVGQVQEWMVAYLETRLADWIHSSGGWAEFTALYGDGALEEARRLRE
Method: as §1, §2, §3, §4

Mcl-1 [2] = target: T1, Mcl-1; conditions: read-out: Binder class, Mcl-1, cited from earlier work
Description: Negative control mutatio ...

[3] = natural BH3 peptides, interactions taken from literature
[4] = S1 Bim variants, specific binding measured using yeast display, ref Dutta et al. (2010)
[5] = S2 Bim variants, ref Dutta et al. (2013)

T1 sequence (Q07820 with tags, fused parts or gaps): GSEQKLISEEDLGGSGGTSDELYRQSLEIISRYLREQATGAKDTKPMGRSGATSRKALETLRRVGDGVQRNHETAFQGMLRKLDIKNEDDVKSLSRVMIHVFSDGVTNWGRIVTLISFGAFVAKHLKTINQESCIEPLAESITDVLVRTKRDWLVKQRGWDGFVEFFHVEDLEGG
T2 sequence (P10415 with tags, fused parts or gaps DEL53-91): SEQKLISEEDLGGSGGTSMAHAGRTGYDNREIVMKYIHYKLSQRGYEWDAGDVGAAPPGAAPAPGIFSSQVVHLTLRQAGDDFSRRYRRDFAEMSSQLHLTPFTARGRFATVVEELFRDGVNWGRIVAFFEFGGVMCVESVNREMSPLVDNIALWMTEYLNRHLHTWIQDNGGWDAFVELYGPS

Substance: FIQSLAAMLKQYADKLEFMHILT-NH2 [CASP3]
- Kd (Mcl-1 [1]): 1000 to 10000 nM
- Kd (Bcl-2; FP direct binding, 10 nM FAM-labeled peptide, receptor titrated, 25°C, pH 7.8, fit of all replicate titrations, X+number in a cell = highest concentration (nM) measured with no binding detected, given here as >, SPNS1 fit to raw fluorescence, read-out: Best-fit KD, Bcl-2): 264 nM
- Kd (Bcl-2; benchmark classification of peptides newly characterized in this study, read-out: Binder class, Bcl-2): < 1000 nM
- Kd (Bfl-1; FP direct binding, 10 nM FAM-labeled peptide, receptor titrated, 25°C, pH 7.8, fit of all replicate titrations, X+number in a cell = highest concentration (nM) measured with no binding detected, given here as >, SPNS1 fit to raw fluorescence, read-out: Best-fit KD, Bfl-1): 43 nM
- Kd (Bfl-1; benchmark classification of peptides newly characterized in this study, read-out: Binder class, Bfl-1): < 1000 nM
- Kd (Bcl-w; FP direct binding, 10 nM FAM-labeled peptide, receptor titrated, 25°C, pH 7.8, fit of all replicate titrations, X+number in a cell = highest concentration (nM) measured with no binding detected, given here as >, SPNS1 fit to raw fluorescence, read-out: Best-fit KD, Bcl-w): 64 nM
- Kd (Bcl-w; benchmark classification of peptides newly characterized in this study, read-out: Binder class, Bcl-w): < 1000 nM

Substance: RLAEVCAVLLRLGDELEMIRPSV (PGRLAEVCAVLLRLGDELEMIRPSVY) [Bok]
- Kd (Mcl-1 [2]; [3]): < 1000 nM

Substance: PEIWIAQEFQRAGDEYNAYYARR
- Kd (Mcl-1 [2]; [4]): > 10000 nM

Substance: PEIWIAQGLRRIGDTWNAYYARR
- Kd (Mcl-1 [2]; [5]): < 1000 nM

Substance: PEIWMAQVLRRFGDLLNAYYARR
- Kd (Mcl-1 [2]; [5]): < 1000 nM

Substance: PEIWFAQEIRRDGDEFNAYYARR
- Kd (Mcl-1 [2]; [4]): > 10000 nM

Substance: IIRNIARHLAQVGDSMDRSIPPG (EDIIRNIARHLAQVGDSMDRSIPPGL) [Bid]
- Kd (Mcl-1 [2]; [3]): < 1000 nM

Substance: PEIWIAQEIRRIGEEYNAYYARR
- Kd (Mcl-1 [2]; [4]): < 1000 nM

Substance: PEIWVAQEFQRAGDEYNAYYARR
- Kd (Mcl-1 [2]; [4]): > 10000 nM

Substance: PEIWFAQEFSRIGDEVNAYYARR
- Kd (Mcl-1 [2]; [4]): < 1000 nM

Substance: PEIWIAQELGRNGDEFNAYYARR
- Kd (Mcl-1 [2]; [4]): > 10000 nM

Substance: PEIWLAQYLRRLGDQINAYYARR
- Kd (Mcl-1 [2]; [5]): < 1000 nM
